What all share (format): cell-based
Test [1] deals with human neutrophils. Kind of test: Scanning electron microscopy of neutrophils stimulated to form NETs. The conditions noted are these: pre-treatment 200 μg/ml, 3 hours after stimulation. As for the experimental part: The observation by a scanning electron microscope was performed as follows. Eosinophil granulocytes were seeded on a glass cover or a glass bottom dish for cell culture in the number of 1×10^6 and pre-treated with 200 μg/ml of human lactoferrin or were not pre-treated before stimulation for NETs. Three hours later, the sample was pre-immobilized with 0.1 M phosphoric acid buffer (pH: 7.4) containing 2% glutaraldehyde at 4° C. for 1 hour. Next, the sample was post-immobilized with 0.1 M phosphoric acid buffer (pH: 7.4) containing 1% osmium tetroxide at 4° C. for 1 hour. After the immobilization, the sample was washed with 60% ethanol, with 70% ethanol, with 80% ethanol and with 95% ethanol while being gently shaken for 5 to 10 minutes, and immersed twice in 100% ethanol for 5 to 10 minutes to be dehydrated. Critical point drying was performed by substitution with isoamyl acetate for 10 to 15 minutes. The sample were covered with a layer of sublimated osmium tetroxide by use of an osmium plasma coating device (OPC80N, Filgen, Inc.) and observed by a scanning electron microscope (JSM-6320F, JEOL, Ltd.). In the case where the neutrophils were not stimulated, the neutrophils were kept spherical and no extracellular fiber was recognized. In the case where the neutrophils were stimulated with PMA, the cells were broken and many fiber components were formed.

The test system of test [2] is human neutrophils. Kind of test: Rate of NETs formation in PMA-stimulated neutrophils after pre-treatment, counted by confocal microscopy.
Test [3] relates to human neutrophils. Kind of test: DNA concentration in the culture supernatant, lactoferrin added after PMA stimulation. The conditions noted are these: p<0.001. The protocol:
From heathy volunteer, 15 ml to 20 ml of peripheral blood was sampled for one cycle of experiment with an EDTA-containing syringe (needle: 18 to 22 G). After the blood sampling, 3 ml of mono-poly resolving medium (Cat No. DSBN100, DS Pharma Biomedical Co., Ltd.) contained in 15 ml conical tube, and then 3.5 ml of the whole blood were gently stacked in the lower-layer mono-poly resolving medium. The 15 ml conical tube was centrifuged at room temperature (15 to 30° C.) at 400×g for 20 minutes by a swing-type centrifuge, and then the conical tube was taken out gently. A brown plasma layer in the top layer and a lymphocyte/monocyte layer immediately below the brown plasma layer were removed by an aspirator or the like. A transparent layer below the lymphocyte/monocyte layer was removed as much as possible. A pale pink layer below the transparent layer was taken out by a Pasteur pipette. […]
The culture supernatant was recovered and centrifuged at 200×g for 10 minutes, and the supernatant was transferred to a new microscopic centrifuge tube. The DNA amount was measured by use of Picogreen dsDNA assay reagent (P11496 Invitrogen) in accordance with an accompanying protocol. […]

Test [4] has as its system human neutrophils. Kind of test: DNA concentration in the culture supernatant (Picogreen) after pre-treatment. The settings on record: pre-treatment 2, 20, 200 μg/ml, 3 hours after stimulation; FIG. 1-D.

The values below come from US20220031813A1, “INHIBITOR OF EXTRACELLULAR TRAP FORMATION IN LEUKOCYTES” (priority 2013, published 2022).

B1: human lactoferrin: human lactoferrin, Cat No. SIGL6793, SIGMA; called human neutrophil-derived lactoferrin (protein, UniProt P02788 20-710, looked up)
Lactotransferrin: GRRRSVQWCAVSQPEATKCFQWQRNMRKVRGPPVSCIKRDSPIQCIQAIAENRADAVTLDGGFIYEAGLAPYKLRPVAAEVYGTERQPRTHYYAVAVVKKGGSFQLNELQGLKSCHTGLRRTAGWNVPIGTLRPFLNWTGPPEPIEAAVARFFSASCVPGADKGQFPNLCRLCAGTGENKCAFSSQEPYFSYSGAFKCLRDGAGDVAFIRESTVFEDLSDEAERDEYELLCPDNTRKPVDKFKDCHLARVPSHAVVARSVNGKEDAIWNLLRQAQEKFGKDKSPKFQLFGSPSGQKDLLFKDSAIGFSRVPPRIDSGLYLGSGYFTAIQNLRKSEEEVAARRARVVWCAVGEQELRKCNQWSGLSEGSVTCSSASTTEDCIALVLKGEADAMSLDGGYVYTAGKCGLVPVLAENYKSQQSSDPDPNCVDRPVEGYLAVAVVRRSDTSLTWNSVKGKKSCHTAVDRTAGWNIPMGLLFNQTGSCKFDEYFSQSCAPGSDPRSNLCALCIGDEQGENKCVPNSNERYYGYTGAFRCLAENAGDVAFVKDVTVLQNTDGNNNEAWAKDLKLADFALLCLDGKRKPVTEARSCHLAMAPNHAVVSRMDKVERLKQVLLHQQAKFGRNGSDCPDKFCLFQSETKNLLFNDNTECLARLHGKTTYEKYLGPQYVAGITNLKKCSTSPLLEACEFLRK
For B1, in test [1], the “fiber components of the NETs by scanning electron microscope” value is listed as “form such fiber components in bundles”. The “rate of the NETs formed at plateau, compared with stimulation merely with PMA” value in test [2] (pre-treatment 2 μg/ml for 30 minutes, then PMA 25 nM) was “half”; in test [2] (pre-treatment 20 μg/ml for 30 minutes, then PMA 25 nM), “half”. For the same molecule, in test [2] (pre-treatment 200 μg/ml for 30 minutes, then PMA 25 nM), the “formation of the NETs at plateau, compared with stimulation merely with PMA” value is “¼”. Further, the “release of the DNAs to the outside of the cells (SYTOX green images)” value in test [2] (pre-treatment 200 μg/ml, FIG. 1-C) is on record as “inhibited”. Also, the “inhibitory effect on the formation of the NETs” value in test [2] (pre-treatment with 2, 20 or 200 μg/ml, FIG. 1-A, 1-B) is reported as “observed similarly to the bovine lactoferrin”. The entries for the “DNA concentration in the culture supernatant” value in test [3] (200 μg/ml added one hour after PMA stimulation), in test [3] (200 μg/ml added two hours after PMA stimulation) and in test [4] were “decreased”, “decreased” and “decreased in a concentration-dependent manner”, respectively.
